Measurements: PMC12002099, “Recombinant Production and Characterization of Six Ene‐reductases from Penicillium steckii” (Chembiochem, 2025)

Columns and labels:
[1] = target: PsOYE2, Class III OYE-type ene-reductase from Penicillium steckii (Penicillium steckii); test: DLS; PsOYE2 in solution; conditions not shown
[2] = target: PsOYE2, Class III OYE-type ene-reductase from Penicillium steckii (Penicillium steckii); test: SEC; PsOYE2 in solution; conditions not shown
[3] = target: PsOYE2, Class III OYE-type ene-reductase from Penicillium steckii (Penicillium steckii); test: crystal structure; PsOYE2 without any tag, FMN bound; monoclinic space group P2(1), four dimers in the asymmetric unit; 2.3 Å; interface analysed with PISA
O=C1C=CC(=O)C=C1 = test: steady-state kinetics, NADPH consumption, Michaelis-Menten fit; assay type: biochemical, Penicillium steckii; conditions: co-substrate NADPH
Text: steady-state kinetics, NADPH consumption, Michaelis-Menten fit on PsOYE4

[4] = substrate: NC(=O)C1=CN([C@@H]2O[C@H](COP(=O)(O)OP(=O)(O)OC[C@H]3O[C@@H](n4cnc5c(N)ncnc54)[C@H](OP(=O)(O)O)[C@@H]3O)[C@@H](O)[C@H]2O)C=CC1; test: as above; assay type: biochemical, Penicillium steckii; conditions: co-substrate p-benzoquinone
Text: (§1) steady-state kinetics, NADPH consumption, Michaelis-Menten fit on PsOYE5

[5] = substrate: O=C1C=CC(=O)C=C1; test: as above; assay type: biochemical, Penicillium steckii; conditions: co-substrate NADPH; remark: listed apart in the source
Text: as §1

[6] = substrate: NC(=O)C1=CN([C@@H]2O[C@H](COP(=O)(O)OP(=O)(O)OC[C@H]3O[C@@H](n4cnc5c(N)ncnc54)[C@H](OP(=O)(O)O)[C@@H]3O)[C@@H](O)[C@H]2O)C=CC1; test: as above; assay type: biochemical, Penicillium steckii; conditions: co-substrate p-benzoquinone; remark: listed apart in the source
Text: (§2) steady-state kinetics, NADPH consumption, Michaelis-Menten fit on PsOYE6

[7] = substrate: O=C1C=CC(=O)C=C1; test: as above; assay type: biochemical, Penicillium steckii; conditions: co-substrate NADPH; remark: listed apart in the source
Text: as §2

[8] = substrate: NC(=O)C1=CN([C@@H]2O[C@H](COP(=O)(O)OP(=O)(O)OC[C@H]3O[C@@H](n4cnc5c(N)ncnc54)[C@H](OP(=O)(O)O)[C@@H]3O)[C@@H](O)[C@H]2O)C=CC1; test: as above; assay type: biochemical, Penicillium steckii; conditions: co-substrate p-benzoquinone; remark: listed apart in the source
Text: (§3) steady-state kinetics, NADPH consumption, Michaelis-Menten fit on PsOYE3

[9] = substrate: O=C1C=CC(=O)C=C1; test: as above; assay type: biochemical, Penicillium steckii; conditions: co-substrate NADPH; remark: listed apart in the source
Text: as §3

[10] = substrate: NC(=O)C1=CN([C@@H]2O[C@H](COP(=O)(O)OP(=O)(O)OC[C@H]3O[C@@H](n4cnc5c(N)ncnc54)[C@H](OP(=O)(O)O)[C@@H]3O)[C@@H](O)[C@H]2O)C=CC1; test: as above; assay type: biochemical, Penicillium steckii; conditions: co-substrate p-benzoquinone; remark: listed apart in the source
Text: (§4) steady-state kinetics, NADPH consumption, Michaelis-Menten fit on PsOYE1

[11] = substrate: O=C1C=CC(=O)C=C1; test: as above; assay type: biochemical, Penicillium steckii; conditions: co-substrate NADPH; remark: listed apart in the source
Text: as §4

[12] = substrate: NC(=O)C1=CN([C@@H]2O[C@H](COP(=O)(O)OP(=O)(O)OC[C@H]3O[C@@H](n4cnc5c(N)ncnc54)[C@H](OP(=O)(O)O)[C@@H]3O)[C@@H](O)[C@H]2O)C=CC1; test: as above; assay type: biochemical, Penicillium steckii; conditions: co-substrate p-benzoquinone; remark: listed apart in the source
Text: (§5) steady-state kinetics, NADPH consumption, Michaelis-Menten fit on PsOYE2

[13] = substrate: O=C1C=CC(=O)C=C1; test: as above; assay type: biochemical, Penicillium steckii; conditions: co-substrate NADPH; remark: listed apart in the source
Text: as §5

## PsOYE2, Class III OYE-type ene-reductase from Penicillium steckii (enzyme)
[1]
  stoichiometry N: 2
[2]
  stoichiometry N: 2
[3]
  stoichiometry N: 2

## PsOYE4 (Penicillium steckii)
O=C1C=CC(=O)C=C1
  Km: 1100 ± 100 µM
  kcat: 28 ± 1 s⁻¹
  kcat/Km: 26000 M⁻¹ s⁻¹

B1: PsOYE5 (Penicillium steckii) (protein)
chain: MSSSAATRFECADVDPSVLGQPLQFTFSGRSAPNRFLKGAMSERLASFSYSDLSARGIPSPTLIQAYKGWGESQIGINLTGNVMIDPGHLEAAGNPVIPRNAEFSGERFERFKELATAGKENGMLIIAQVGHPGRQTPQYLQPNPISASDVQVQGEPMGMKFAQPRAATHEDIANIIDGFAHAAEYLDKAGFDGIELHGAHGYLLSQFLSSATNLRTDQYGGDLKNRMRLILEVRDEIAKRVRKDFVVGIKINSVEFQDKGFQPDDAKELCRALEEHAFDFVELSGGTYEKSPFAEQKRPSTIERESLFLDFARLIVPGLTKTKTYVTGGFKTVEAMVKALETVDGVGLGRPLCQEPNLCAHILSGKVKGAIDQKIDMYNFGATAGAAGVQIQQMGNHLQPIDLSQEENVGKLFAALGPWLAARQKDVELYRSPAVADYVVPYSKTSML
[4]
  Km: 500 ± 200 µM
  kcat: 70 ± 14 s⁻¹
  kcat/Km: 150000 M⁻¹ s⁻¹
[5]
  Km: 900 ± 100 µM
  kcat: 23.2 ± 0.9 s⁻¹
  kcat/Km: 26000 M⁻¹ s⁻¹

B2: PsOYE6 (Penicillium steckii) (protein)
chain: MSSKLFNPMQVGRMQLSTRLAMAPMTRFRVDDDHNPLPIVKDYYAQRGSIPGTLLITEATIISPQAGGYKNVPGIYTDSQIAAWKEITDAVHAKGSYIYLQLWALGRVADPNYLRELGNYDLVSASDIPAGEGAPTPRPLSESDIQSFVKDYAQAAKNAVAAGFDGVEIHAANGYLIDQFIQDNSNQRNDSYGGSVENRARFALEVTQAVVDAIGADRTGIRYSPFSTFQGMRMADPIPQFSYLAKETAKFKLAFTHLVEPRIAGNADVEETPDELEFFLKEYGNATPVIIAGGYKAESAIQAVDEKYKEFDTVIGIGRPWTSNPDLPFRIKANVPLVPYDRDTFYNPKDPKGYIDWAFSPEFKATQVGA
[6]
  Km: 300 ± 100 µM
  kcat: 53 ± 7 s⁻¹
  kcat/Km: 170000 M⁻¹ s⁻¹
[7]
  Km: 1100 ± 100 µM
  kcat: 25.5 ± 0.9 s⁻¹
  kcat/Km: 23000 M⁻¹ s⁻¹

B3: PsOYE3 (Penicillium steckii) (protein)
chain: MAQSNHPDIANKPAEGISYYTPAQVPPAGSAAIPQSDGAQPPKLFTPFQVRGVTFHNRIGLSPLCQYSADDGHMTDWHMAHLGGIAQRGPGFLMVEATAVQANGRITPQDHGLWKDSQIEPLRRVVEFIHSQNQVIGVQLAHAGRKASTVAPWLSSADTATEAVGGWPENVKGPSDIPFHDKFPVPKALTLNEIEQFKQDWVSALKRAVKAGADFVEIHNAHGYLLMSFLSPASNKRTDQYGGSFENRIRLTMEIAQLTRDNIPKDMPVFLRVSATDWLEEAMPNEPSWRIEDTVQLAKALADSGNIDVLDVSSGGNHRAQHIHAKAAFQAPFAIEVKKAVGDRLQVGSVGMIDSAQLASSLLENDGLDFVLVGRGFQKNPGLVWAWAEELDVEISMANQIRWGFSSRGGGVYLKKRHGKM
[8]
  Km: 200 ± 0 µM
  kcat: 64 ± 4 s⁻¹
  kcat/Km: 350000 M⁻¹ s⁻¹
[9]
  Km: 8 ± 1 µM
  kcat: 19.6 ± 1.3 s⁻¹
  kcat/Km: 2.45e+06 M⁻¹ s⁻¹

B4: PsOYE1 (Penicillium steckii) (protein)
chain: MTIQYISGEESGLFRPLTISNGSLTLRHRIIHAPLTRNRGVPANPISTPENPNRIWVPGDLIAEYYGQRATEGGLLISEGIPPSLESNGMPGVPGLFTPEQANGWKKVVDAVHAKGGFIFCQLWHAGRATIPQMTGSPAVCPSASVWDSPKECYSHPPVGSTEPVPYANHPPIELSVPHIKQTIQDYCNAAKTAMEIGFDGVEIHGGNGYLPEQFLSSNINKRTDDYGGSPEKRCKFVFELMDEVAKTIGEQNLSIRLSPFGLFNQARGEQRLETWTHLCEGLKKAHPALSYVSFVEPRFEQIFSEEEKDTFLQSWGLKDVTLDRFRKIFGETPFFSAGGFDDKNSWNIVESGKYDGLLFGRYFISNPDLVHRLAKGLPLAPYDRTRFYGPFEDNVFHYTDYPTIDKQ
[10]
  Km: 300 ± 100 µM
  kcat: 63 ± 8 s⁻¹
  kcat/Km: 200000 M⁻¹ s⁻¹
[11]
  Km: 700 ± 100 µM
  kcat: 23.4 ± 1 s⁻¹
  kcat/Km: 33000 M⁻¹ s⁻¹

B5: PsOYE2 (Penicillium steckii) (protein)
chain: MTWPDVPIAAAPGISYFTPAQSPPAGTARNPQTSGKAIPKLFQPLTIRGHTFQNRLGVAPMCQYSADDGHLTPWHMAHYGGIAQRGPGMIIIEATGVVPEGRITPGCVGLWKDSQIAPLKQVVEFAHSQGQKIGIQLAHAGRKASTVPPWLGGVTATNAVGGWTENVKGPSAIPFAEGEIVPKAMTKEDIEEVKTAWVAAVERAVAAGVDFIEIHNAHGYLLSSFLSPSSNQRTDDYGGSFENRIRLSLEISQLTRDTVGPNMPVFLRVSATDWLEKSMPEEKGWKLEDTVEFSRALAAQGAIDLIDISTGGVHAAQKVTSGVGFQVPFAKAVKEAVGQKMLVSAVGTINSGNLAEKILNEDDVDVILVGRAFQRDSGLAWAFAKDLDVEIAMAGQIRWGFTSFRNASEYIQPNSMKASIFD
[12]
  Km: 500 ± 100 µM
  kcat: 70 ± 10 s⁻¹
  kcat/Km: 140000 M⁻¹ s⁻¹
[13]
  Km: 2 ± 1 µM
